The supplement of paper PMC9112550, “Optimization of the antimicrobial peptide Bac7 by deep mutational scanning” (BMC Biology, 2022)
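Note: peptides expressed intracellularly from a pBAD plasmid library in pooled LB shake-flask culture, induced with 0.3% L-arabinose, DNA abundance read by NGS, three biological replicates, DESeq2 with apeglm shrinkage.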

Each sequence was assayed on Escherichia coli TOP10 (assay: shrunken log2 fold change of peptide-encoding DNA abundance (4.5 h post-induction vs induction); higher = less antimicrobial activity (less host growth inhibition)). Details: time post-induction: 4.5 h; library: site-saturation at positions 5, 18, 19, 20.
In the case of RRIRWRPPRLPRPRPRPVWAPRP, the “shrunken log2 fold change” value is reported as 0.263. With RRIRYRPPRLPRPRPRPTELPRP the “shrunken log2 fold change” value was 0.0588. In the case of RRIRFRPPRLPRPRPRPCKIPRP, the “shrunken log2 fold change” value is reported as -0.0538. RRIRLRPPRLPRPRPRPTRAPRP was tested, and the “shrunken log2 fold change” value was 0.498. With RRIRLRPPRLPRPRPRPKHRPRP the “shrunken log2 fold change” value was -0.112. With RRIRARPPRLPRPRPRPTEWPRP the “shrunken log2 fold change” value was 0.483. RRIRMRPPRLPRPRPRPWYNPRP was tested, and the “shrunken log2 fold change” value was -0.044. With RRIRYRPPRLPRPRPRPSKIPRP the “shrunken log2 fold change” value was -0.502. For RRIRNRPPRLPRPRPRPHAAPRP, the “shrunken log2 fold change” value was 0.545. In the case of RRIRNRPPRLPRPRPRPLICPRP, the “shrunken log2 fold change” value is reported as -0.771. For RRIRMRPPRLPRPRPRPRAIPRP, the “shrunken log2 fold change” value was 0.52. In the case of RRIRERPPRLPRPRPRPKKRPRP, the “shrunken log2 fold change” value is reported as 0.0479. RRIRLRPPRLPRPRPRPPGDPRP was tested, and the “shrunken log2 fold change” value was 0.834. With RRIRWRPPRLPRPRPRPRCNPRP the “shrunken log2 fold change” value was 0.0644. RRIRPRPPRLPRPRPRPDFFPRP was tested, and the “shrunken log2 fold change” value was -0.0853. RRIRNRPPRLPRPRPRPNSLPRP was tested, and the “shrunken log2 fold change” value was -0.335. In the case of RRIRDRPPRLPRPRPRPQASPRP, the “shrunken log2 fold change” value is reported as -0.0448. In the case of RRIRKRPPRLPRPRPRPVQPPRP, the “shrunken log2 fold change” value is reported as 0.0838. In the case of RRIRARPPRLPRPRPRPLLPPRP, the “shrunken log2 fold change” value is reported as 0.419. RRIRIRPPRLPRPRPRPEVWPRP was tested, and the “shrunken log2 fold change” value was 0.217. For RRIRFRPPRLPRPRPRPPYCPRP, the “shrunken log2 fold change” value was -0.448. RRIRSRPPRLPRPRPRPDIGPRP was tested, and the “shrunken log2 fold change” value was -0.113. With RRIRCRPPRLPRPRPRPNINPRP the “shrunken log2 fold change” value was -0.181. In the case of RRIRLRPPRLPRPRPRPLSRPRP, the “shrunken log2 fold change” value is reported as -0.247. With RRIRVRPPRLPRPRPRPMSPPRP the “shrunken log2 fold change” value was 0.0872. With RRIRARPPRLPRPRPRPAMPPRP the “shrunken log2 fold change” value was -0.131. In the case of RRIRWRPPRLPRPRPRPVLSPRP, the “shrunken log2 fold change” value is reported as 0.415. With RRIRGRPPRLPRPRPRPLKVPRP the “shrunken log2 fold change” value was 0.271. With RRIRTRPPRLPRPRPRPCFMPRP the “shrunken log2 fold change” value was -0.153. In the case of RRIRVRPPRLPRPRPRPWQPPRP, the “shrunken log2 fold change” value is reported as 0.146. For RRIRNRPPRLPRPRPRPKHAPRP, the “shrunken log2 fold change” value was 0.0877. For RRIRNRPPRLPRPRPRPKRSPRP, the “shrunken log2 fold change” value was 0.115. For RRIRNRPPRLPRPRPRPEYFPRP, the “shrunken log2 fold change” value was -0.0135. In the case of RRIRFRPPRLPRPRPRPVCGPRP, the “shrunken log2 fold change” value is reported as 0.277. With RRIRIRPPRLPRPRPRPCNSPRP the “shrunken log2 fold change” value was -0.271. With RRIRHRPPRLPRPRPRPITWPRP the “shrunken log2 fold change” value was -0.149. For RRIRSRPPRLPRPRPRPHCQPRP, the “shrunken log2 fold change” value was -0.159. RRIRHRPPRLPRPRPRPQCKPRP was tested, and the “shrunken log2 fold change” value was -0.161. RRIRHRPPRLPRPRPRPLFEPRP was tested, and the “shrunken log2 fold change” value was -0.135. RRIRYRPPRLPRPRPRPSEPPRP was tested, and the “shrunken log2 fold change” value was -0.205. RRIRIRPPRLPRPRPRPELWPRP was tested, and the “shrunken log2 fold change” value was 0.243. For RRIRERPPRLPRPRPRPCWWPRP, the “shrunken log2 fold change” value was 0.288. With RRIRNRPPRLPRPRPRPEIWPRP the “shrunken log2 fold change” value was 0.0992. For RRIRYRPPRLPRPRPRPCFEPRP, the “shrunken log2 fold change” value was -0.614. RRIRYRPPRLPRPRPRPDQWPRP was tested, and the “shrunken log2 fold change” value was -0.103. For RRIRYRPPRLPRPRPRPKQLPRP, the “shrunken log2 fold change” value was 0.0588. In the case of RRIRKRPPRLPRPRPRPNNHPRP, the “shrunken log2 fold change” value is reported as -0.469. In the case of RRIRPRPPRLPRPRPRPPSVPRP, the “shrunken log2 fold change” value is reported as 0.321. With RRIRIRPPRLPRPRPRPKWNPRP the “shrunken log2 fold change” value was -0.454. RRIRFRPPRLPRPRPRPAWWPRP was tested, and the “shrunken log2 fold change” value was 0.273. In the case of RRIRERPPRLPRPRPRPVYDPRP, the “shrunken log2 fold change” value is reported as -0.0514. For RRIRNRPPRLPRPRPRPWPCPRP, the “shrunken log2 fold change” value was -0.185. In the case of RRIRCRPPRLPRPRPRPGQKPRP, the “shrunken log2 fold change” value is reported as 0.0902. With RRIRNRPPRLPRPRPRPESQPRP the “shrunken log2 fold change” value was -0.00881. In the case of RRIRKRPPRLPRPRPRPVMRPRP, the “shrunken log2 fold change” value is reported as 0.74. For RRIRYRPPRLPRPRPRPAMIPRP, the “shrunken log2 fold change” value was -0.229. RRIRSRPPRLPRPRPRPEQRPRP was tested, and the “shrunken log2 fold change” value was -0.011. With RRIRNRPPRLPRPRPRPAYQPRP the “shrunken log2 fold change” value was -0.146. With RRIRHRPPRLPRPRPRPMDIPRP the “shrunken log2 fold change” value was -0.00136. RRIRVRPPRLPRPRPRPETDPRP was tested, and the “shrunken log2 fold change” value was 0.023. RRIRFRPPRLPRPRPRPNFEPRP was tested, and the “shrunken log2 fold change” value was -0.0264. In the case of RRIRKRPPRLPRPRPRPWRMPRP, the “shrunken log2 fold change” value is reported as 0.0773. For RRIRERPPRLPRPRPRPLGAPRP, the “shrunken log2 fold change” value was -0.159. In the case of RRIRERPPRLPRPRPRPNPGPRP, the “shrunken log2 fold change” value is reported as -0.55. For RRIRWRPPRLPRPRPRPISTPRP, the “shrunken log2 fold change” value was -0.399. For RRIRDRPPRLPRPRPRPIHSPRP, the “shrunken log2 fold change” value was -0.00999. For RRIRVRPPRLPRPRPRPEMDPRP, the “shrunken log2 fold change” value was 0.111. In the case of RRIRGRPPRLPRPRPRPEPNPRP, the “shrunken log2 fold change” value is reported as 1.42. For RRIRSRPPRLPRPRPRPNLTPRP, the “shrunken log2 fold change” value was -0.15. With RRIRNRPPRLPRPRPRPMKSPRP the “shrunken log2 fold change” value was -0.106. In the case of RRIRCRPPRLPRPRPRPYFCPRP, the “shrunken log2 fold change” value is reported as -0.514. For RRIRMRPPRLPRPRPRPWCEPRP, the “shrunken log2 fold change” value was -0.0233. For RRIRHRPPRLPRPRPRPQPGPRP, the “shrunken log2 fold change” value was -0.0184. With RRIRCRPPRLPRPRPRPANNPRP the “shrunken log2 fold change” value was -0.409. With RRIRTRPPRLPRPRPRPMSWPRP the “shrunken log2 fold change” value was 0.0201.
